PMC3715500

Target: Rac-GFP (UniProt P63000)
Assay: FRET or BRET; FLIM-FRET (donor lifetime, time-gated fast-FLIM prototype, five gates of 2.25 ns, up to 1 FLIM image per s) in living 3T3 cells co-transfected with donor Rac-GFP and acceptor PBD-mCherry or mCherry alone; analysed by mfD, polar approach and moments method

Sequence of PBD-mCherry (domain or fragment) (Q13153 2-545): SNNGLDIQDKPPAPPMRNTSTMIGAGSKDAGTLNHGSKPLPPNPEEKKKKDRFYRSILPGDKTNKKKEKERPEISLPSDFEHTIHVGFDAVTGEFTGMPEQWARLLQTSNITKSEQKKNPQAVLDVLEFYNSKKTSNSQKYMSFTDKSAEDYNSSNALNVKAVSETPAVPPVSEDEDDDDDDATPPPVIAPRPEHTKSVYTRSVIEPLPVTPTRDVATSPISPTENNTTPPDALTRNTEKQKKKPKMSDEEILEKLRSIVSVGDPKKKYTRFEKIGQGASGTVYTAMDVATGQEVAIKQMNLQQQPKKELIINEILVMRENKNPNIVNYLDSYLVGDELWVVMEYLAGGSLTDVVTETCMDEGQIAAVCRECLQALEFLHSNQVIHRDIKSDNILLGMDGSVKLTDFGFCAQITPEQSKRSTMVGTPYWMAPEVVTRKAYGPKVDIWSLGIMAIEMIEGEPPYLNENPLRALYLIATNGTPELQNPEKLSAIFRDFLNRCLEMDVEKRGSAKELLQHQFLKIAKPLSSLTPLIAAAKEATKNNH

- mean donor lifetime <τ> (population of cells, n = 10): 2.37 ns
- mean donor lifetime <τ> (single cell, corrected): 2.21
- minimal fraction of interacting donor mfD (representative cell): 0.19
- non-corrected average donor lifetime (representative cell): 2.3 ns
Substance: PBD-mCherry (domain or fragment)
